Measured values: patent US20250262210A1 (TRUSTEES OF COLUMBIA UNIVERSITY IN THE CITY OF NEW YORK, published 2025)

How the values were obtained:
Test in all cases: IP/MS, LZTR1 R810W-FLAG, U87
FBX038 = target: T1, FBX038 (human, UniProt Q6PIJ6 1-1188, limits assumed)
T1 construct: Printed with a zero; probably FBXO38
T1 sequence (looked up): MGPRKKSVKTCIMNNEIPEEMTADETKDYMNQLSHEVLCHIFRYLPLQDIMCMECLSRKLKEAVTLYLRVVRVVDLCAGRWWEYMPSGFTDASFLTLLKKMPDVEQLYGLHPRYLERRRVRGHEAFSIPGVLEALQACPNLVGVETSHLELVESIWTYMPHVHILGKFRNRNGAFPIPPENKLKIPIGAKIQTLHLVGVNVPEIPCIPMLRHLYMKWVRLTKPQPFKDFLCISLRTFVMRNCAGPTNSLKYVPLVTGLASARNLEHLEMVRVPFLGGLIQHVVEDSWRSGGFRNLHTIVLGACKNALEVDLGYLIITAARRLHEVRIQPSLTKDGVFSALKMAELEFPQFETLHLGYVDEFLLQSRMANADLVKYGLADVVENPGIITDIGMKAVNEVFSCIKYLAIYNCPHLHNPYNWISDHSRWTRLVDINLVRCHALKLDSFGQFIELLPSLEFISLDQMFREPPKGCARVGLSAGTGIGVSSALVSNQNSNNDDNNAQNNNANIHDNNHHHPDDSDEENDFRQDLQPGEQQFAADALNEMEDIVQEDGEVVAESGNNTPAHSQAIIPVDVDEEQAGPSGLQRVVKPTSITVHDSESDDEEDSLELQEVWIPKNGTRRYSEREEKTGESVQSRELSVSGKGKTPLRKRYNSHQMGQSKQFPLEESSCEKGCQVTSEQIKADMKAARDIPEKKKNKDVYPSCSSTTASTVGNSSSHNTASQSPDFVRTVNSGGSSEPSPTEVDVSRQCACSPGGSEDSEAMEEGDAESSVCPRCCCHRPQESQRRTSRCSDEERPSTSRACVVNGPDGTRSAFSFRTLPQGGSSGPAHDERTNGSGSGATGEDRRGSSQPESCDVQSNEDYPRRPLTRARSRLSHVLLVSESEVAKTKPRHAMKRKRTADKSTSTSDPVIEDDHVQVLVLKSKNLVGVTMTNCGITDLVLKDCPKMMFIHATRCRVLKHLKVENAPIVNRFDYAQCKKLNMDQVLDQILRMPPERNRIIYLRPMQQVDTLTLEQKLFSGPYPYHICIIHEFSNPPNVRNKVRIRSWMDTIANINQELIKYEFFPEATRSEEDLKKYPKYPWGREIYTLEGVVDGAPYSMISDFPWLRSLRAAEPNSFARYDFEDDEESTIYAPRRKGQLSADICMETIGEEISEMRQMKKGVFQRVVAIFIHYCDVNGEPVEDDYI
Procedure, shortened: (§1)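 Read-out: spectral counts from LC-MS/MS (Orbitrap Fusion) after MaxQuant identification. Variable modifications were Met oxidation, protein N-terminal acetylation and N/Q deamidation.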

POLR1A = POLR1A (human, UniProt O95602 1-1720)
Procedure, shortened: as §1

MAP4K4 = MAP4K4 (human, UniProt O95819 2-1239, limits assumed)
Procedure, shortened: as §1

KNL1 = KNL1 (human, UniProt Q8NG31 1-2342, limits assumed)
Procedure, shortened: as §1

ASXL1 = ASXL1 (human, UniProt Q8IXJ9 1-1541, limits assumed)
Procedure, shortened: as §1

EIF2AK4 = EIF2AK4 (human, UniProt Q9P2K8 1-1649, limits assumed)
Procedure, shortened: as §1

ARHGEF28 = ARHGEF28 (human, UniProt Q8N1W1 1-1705, limits assumed)
Procedure, shortened: as §1

RICTOR = RICTOR (human, UniProt Q6R327 1-1708, limits assumed)
Procedure, shortened: as §1

Measured: binding result

MAP4K4, sequence (O95819 2-1239 limits assumed): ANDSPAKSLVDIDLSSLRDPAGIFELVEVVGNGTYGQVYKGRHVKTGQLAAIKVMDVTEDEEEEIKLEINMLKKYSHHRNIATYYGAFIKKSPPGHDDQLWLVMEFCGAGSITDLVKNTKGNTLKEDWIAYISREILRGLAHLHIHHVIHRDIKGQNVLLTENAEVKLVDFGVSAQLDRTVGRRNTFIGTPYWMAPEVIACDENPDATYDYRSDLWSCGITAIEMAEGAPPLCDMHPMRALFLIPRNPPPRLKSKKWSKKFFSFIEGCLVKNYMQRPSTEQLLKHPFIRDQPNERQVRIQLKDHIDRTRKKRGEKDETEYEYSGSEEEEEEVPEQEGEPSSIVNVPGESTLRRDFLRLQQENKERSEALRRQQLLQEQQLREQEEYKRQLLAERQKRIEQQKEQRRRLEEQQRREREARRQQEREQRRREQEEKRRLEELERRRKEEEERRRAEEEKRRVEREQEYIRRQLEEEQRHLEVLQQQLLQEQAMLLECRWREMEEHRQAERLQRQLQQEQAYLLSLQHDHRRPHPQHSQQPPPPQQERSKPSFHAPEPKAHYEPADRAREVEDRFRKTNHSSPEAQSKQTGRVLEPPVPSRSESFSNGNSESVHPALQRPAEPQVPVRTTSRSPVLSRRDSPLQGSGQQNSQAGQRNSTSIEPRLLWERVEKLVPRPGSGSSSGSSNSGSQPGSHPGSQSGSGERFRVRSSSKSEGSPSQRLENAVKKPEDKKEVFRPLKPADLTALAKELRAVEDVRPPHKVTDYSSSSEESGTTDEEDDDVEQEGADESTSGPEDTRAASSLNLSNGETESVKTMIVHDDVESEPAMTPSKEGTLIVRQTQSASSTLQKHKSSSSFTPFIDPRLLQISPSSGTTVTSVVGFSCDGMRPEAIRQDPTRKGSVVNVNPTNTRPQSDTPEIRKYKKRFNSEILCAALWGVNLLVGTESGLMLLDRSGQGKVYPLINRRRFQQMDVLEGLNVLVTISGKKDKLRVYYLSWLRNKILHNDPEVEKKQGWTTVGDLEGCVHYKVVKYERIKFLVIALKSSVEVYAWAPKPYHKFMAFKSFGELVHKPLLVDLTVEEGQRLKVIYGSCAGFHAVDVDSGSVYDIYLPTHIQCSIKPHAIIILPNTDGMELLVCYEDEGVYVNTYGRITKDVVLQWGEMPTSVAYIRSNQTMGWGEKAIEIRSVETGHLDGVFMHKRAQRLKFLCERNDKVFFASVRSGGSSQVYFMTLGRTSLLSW
ARHGEF28, sequence (Q8N1W1 whole entry): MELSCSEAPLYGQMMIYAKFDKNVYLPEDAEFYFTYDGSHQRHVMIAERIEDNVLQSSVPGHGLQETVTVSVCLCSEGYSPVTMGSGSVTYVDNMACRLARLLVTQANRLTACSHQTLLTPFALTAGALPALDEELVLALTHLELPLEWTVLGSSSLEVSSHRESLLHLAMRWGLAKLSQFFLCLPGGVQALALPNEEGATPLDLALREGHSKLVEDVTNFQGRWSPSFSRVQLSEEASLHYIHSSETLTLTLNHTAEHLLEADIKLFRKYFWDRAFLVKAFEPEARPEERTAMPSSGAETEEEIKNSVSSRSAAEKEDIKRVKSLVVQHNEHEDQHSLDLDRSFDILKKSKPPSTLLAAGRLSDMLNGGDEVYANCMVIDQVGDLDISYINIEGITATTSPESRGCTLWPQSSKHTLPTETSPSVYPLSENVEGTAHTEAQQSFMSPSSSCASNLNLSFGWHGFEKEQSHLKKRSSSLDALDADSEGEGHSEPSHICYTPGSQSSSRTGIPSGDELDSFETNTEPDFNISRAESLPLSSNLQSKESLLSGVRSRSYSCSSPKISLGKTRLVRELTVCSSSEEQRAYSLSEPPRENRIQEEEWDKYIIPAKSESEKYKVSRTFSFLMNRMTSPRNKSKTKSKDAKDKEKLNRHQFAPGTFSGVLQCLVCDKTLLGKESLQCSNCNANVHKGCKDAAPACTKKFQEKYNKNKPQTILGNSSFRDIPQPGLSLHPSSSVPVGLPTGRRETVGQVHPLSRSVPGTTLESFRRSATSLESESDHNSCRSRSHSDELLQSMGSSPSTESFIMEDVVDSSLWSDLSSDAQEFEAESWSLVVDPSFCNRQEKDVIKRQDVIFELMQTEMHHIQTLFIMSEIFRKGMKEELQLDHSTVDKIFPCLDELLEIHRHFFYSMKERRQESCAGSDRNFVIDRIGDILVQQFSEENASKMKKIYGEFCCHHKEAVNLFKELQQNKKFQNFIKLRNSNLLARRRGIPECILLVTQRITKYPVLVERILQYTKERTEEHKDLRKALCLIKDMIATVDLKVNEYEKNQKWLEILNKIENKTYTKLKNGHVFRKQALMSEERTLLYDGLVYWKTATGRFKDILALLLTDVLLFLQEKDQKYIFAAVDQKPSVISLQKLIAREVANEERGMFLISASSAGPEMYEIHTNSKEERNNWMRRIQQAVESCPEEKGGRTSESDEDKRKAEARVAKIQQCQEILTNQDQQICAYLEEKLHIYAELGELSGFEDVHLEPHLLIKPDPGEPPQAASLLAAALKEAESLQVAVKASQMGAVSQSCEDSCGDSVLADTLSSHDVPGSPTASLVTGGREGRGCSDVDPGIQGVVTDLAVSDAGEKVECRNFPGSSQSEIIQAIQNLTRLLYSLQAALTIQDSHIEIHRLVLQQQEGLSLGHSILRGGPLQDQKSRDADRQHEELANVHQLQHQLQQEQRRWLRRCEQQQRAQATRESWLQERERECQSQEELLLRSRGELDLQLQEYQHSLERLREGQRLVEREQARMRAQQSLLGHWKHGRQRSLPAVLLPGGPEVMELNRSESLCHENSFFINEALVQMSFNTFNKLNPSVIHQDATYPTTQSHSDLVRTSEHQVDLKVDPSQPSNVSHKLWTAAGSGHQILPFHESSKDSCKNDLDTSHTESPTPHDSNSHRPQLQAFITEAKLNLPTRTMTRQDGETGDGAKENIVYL
ASXL1, sequence (Q8IXJ9 whole entry): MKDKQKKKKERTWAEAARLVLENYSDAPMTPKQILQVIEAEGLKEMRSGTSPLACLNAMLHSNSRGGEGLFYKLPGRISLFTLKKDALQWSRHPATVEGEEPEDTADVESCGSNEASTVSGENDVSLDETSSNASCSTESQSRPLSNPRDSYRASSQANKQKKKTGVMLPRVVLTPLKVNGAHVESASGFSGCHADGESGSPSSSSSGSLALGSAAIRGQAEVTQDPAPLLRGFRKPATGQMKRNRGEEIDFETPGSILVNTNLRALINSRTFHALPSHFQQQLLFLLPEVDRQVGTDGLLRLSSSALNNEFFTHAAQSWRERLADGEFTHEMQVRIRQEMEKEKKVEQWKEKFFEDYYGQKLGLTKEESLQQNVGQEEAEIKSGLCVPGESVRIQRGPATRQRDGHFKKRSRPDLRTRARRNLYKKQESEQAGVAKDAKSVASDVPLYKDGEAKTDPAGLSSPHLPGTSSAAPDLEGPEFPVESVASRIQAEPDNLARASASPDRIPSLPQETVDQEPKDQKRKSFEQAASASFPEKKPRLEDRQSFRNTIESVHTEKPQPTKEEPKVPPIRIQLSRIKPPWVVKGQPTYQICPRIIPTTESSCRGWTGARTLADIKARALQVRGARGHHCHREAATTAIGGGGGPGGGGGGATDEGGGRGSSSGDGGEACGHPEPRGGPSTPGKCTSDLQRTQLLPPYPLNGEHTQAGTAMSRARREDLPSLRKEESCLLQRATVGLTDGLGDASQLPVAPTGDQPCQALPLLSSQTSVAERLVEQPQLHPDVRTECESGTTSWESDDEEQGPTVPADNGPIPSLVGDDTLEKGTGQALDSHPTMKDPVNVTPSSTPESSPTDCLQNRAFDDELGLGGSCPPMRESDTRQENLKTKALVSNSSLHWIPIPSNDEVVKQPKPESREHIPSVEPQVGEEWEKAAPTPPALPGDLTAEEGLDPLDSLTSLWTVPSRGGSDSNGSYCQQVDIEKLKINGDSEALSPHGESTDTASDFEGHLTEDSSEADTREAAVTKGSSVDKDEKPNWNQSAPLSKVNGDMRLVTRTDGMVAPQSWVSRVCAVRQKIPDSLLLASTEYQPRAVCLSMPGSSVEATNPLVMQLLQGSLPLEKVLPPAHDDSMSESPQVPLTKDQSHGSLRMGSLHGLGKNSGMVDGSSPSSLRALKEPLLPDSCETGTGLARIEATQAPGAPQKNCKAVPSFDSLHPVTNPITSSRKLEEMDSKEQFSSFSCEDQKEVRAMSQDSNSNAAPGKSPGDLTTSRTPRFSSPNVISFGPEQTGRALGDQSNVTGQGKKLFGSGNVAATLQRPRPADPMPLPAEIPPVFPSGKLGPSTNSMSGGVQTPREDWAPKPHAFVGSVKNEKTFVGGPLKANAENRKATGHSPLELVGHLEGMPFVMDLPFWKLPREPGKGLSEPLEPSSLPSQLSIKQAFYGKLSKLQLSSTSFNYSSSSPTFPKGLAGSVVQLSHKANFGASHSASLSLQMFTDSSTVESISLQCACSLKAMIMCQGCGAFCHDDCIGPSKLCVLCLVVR

B1: LZTR1 R810W-FLAG (other, human, UniProt Q8N653 1-840, looked up)
chain: MAGPGSTGGQIGAAALAGGARSKVAPSVDFDHSCSDSVEYLTLNFGPFETVHRWRRLPPCDEFVGARRSKHTVVAYKDAIYVFGGDNGKTMLNDLLRFDVKDCSWCRAFTTGTPPAPRYHHSAVVYGSSMFVFGGYTGDIYSNSNLKNKNDLFEYKFATGQWTEWKIEGRLPVARSAHGATVYSDKLWIFAGYDGNARLNDMWTIGLQDRELTCWEEVAQSGEIPPSCCNFPVAVCRDKMFVFSGQSGAKITNNLFQFEFKDKTWTRIPTEHLLRGSPPPPQRRYGHTMVAFDRHLYVFGGAADNTLPNELHCYDVDFQTWEVVQPSSDSEVGGAEVPERACASEEVPTLTYEERVGFKKSRDVFGLDFGTTSAKQPTQPASELPSGRLFHAAAVISDAMYIFGGTVDNNIRSGEMYRFQFSCYPKCTLHEDYGRLWESRQFCDVEFVLGEKEECVQGHVAIVTARSRWLRRKITQARERLAQKLEQEAAPVPREAPGVAAGGARPPLLHVAIREAEARPFEVLMQFLYTDKIKYPRKGHVEDVLLIMDVYKLALSFQLCRLEQLCRQYIEASVDLQNVLVVCESAARLQLSQLKEHCLNFVVKESHFNQVIMMKEFERLSSPLIVEIVRRKQQPPPRTPLDQPVDIGTSLIQDMKAYLEGAGAEFCDITLLLDGHPRPAHKAILAARSSYFEAMFRSFMPEDGQVNISIGEMVPSRQAFESMLRYIYYGEVNMPPEDSLYLFAAPYYYGFYNNRLQAYCKQNLEMNVTVQNVLQILEAADKTQALDMKRHCLHIIVHQFTKVSKLPTLWSLSQQLLLDIIDSLASHISDKQCAELGADI
notes: Stably expressed in U87 cells by lentivirus; also called LZTR1-FLAG-R810W; LZTR1 RW; not shown: FLAG tag
binds: all assays above
